# Measurements published in patent US20250057883A1, “CONTROLLABLE STIMULATION OF GENETICALLY ENGINEERED LYMPHOCYTES FOR THE TREATMENT OF CANCER” (THE TRUSTEES OF THE UNIVERSITY OF PENNSYLVANIA, priority 2021, published 2025).
# “Also recorded” adds a separate entry of the source.
# T1: interleukin-6 receptor (IL-6R) (Homo sapiens, UniProt P08887)
# T1 construct: endogenous in cells; host or cells: subjects with cytokine release syndrome (in vivo)
# T1 sequence (P08887 20-468): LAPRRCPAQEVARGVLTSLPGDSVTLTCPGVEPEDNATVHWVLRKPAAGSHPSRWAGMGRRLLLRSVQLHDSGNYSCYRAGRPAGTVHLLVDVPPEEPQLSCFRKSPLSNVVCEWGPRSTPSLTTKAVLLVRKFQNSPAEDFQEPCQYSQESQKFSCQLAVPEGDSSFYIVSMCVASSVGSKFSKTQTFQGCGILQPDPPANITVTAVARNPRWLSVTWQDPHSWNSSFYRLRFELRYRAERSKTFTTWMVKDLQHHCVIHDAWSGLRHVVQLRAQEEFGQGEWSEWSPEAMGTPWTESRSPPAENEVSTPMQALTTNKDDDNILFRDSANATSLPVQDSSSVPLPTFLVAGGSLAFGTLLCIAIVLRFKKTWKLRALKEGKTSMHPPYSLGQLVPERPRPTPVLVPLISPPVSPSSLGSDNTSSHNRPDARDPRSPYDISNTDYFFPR
# T2: TPO-R (Homo sapiens, UniProt P40238)
# T2 construct: host or cells: CAR T cells transduced with TPO-R by other groups
# T2 sequence (P40238 26-635): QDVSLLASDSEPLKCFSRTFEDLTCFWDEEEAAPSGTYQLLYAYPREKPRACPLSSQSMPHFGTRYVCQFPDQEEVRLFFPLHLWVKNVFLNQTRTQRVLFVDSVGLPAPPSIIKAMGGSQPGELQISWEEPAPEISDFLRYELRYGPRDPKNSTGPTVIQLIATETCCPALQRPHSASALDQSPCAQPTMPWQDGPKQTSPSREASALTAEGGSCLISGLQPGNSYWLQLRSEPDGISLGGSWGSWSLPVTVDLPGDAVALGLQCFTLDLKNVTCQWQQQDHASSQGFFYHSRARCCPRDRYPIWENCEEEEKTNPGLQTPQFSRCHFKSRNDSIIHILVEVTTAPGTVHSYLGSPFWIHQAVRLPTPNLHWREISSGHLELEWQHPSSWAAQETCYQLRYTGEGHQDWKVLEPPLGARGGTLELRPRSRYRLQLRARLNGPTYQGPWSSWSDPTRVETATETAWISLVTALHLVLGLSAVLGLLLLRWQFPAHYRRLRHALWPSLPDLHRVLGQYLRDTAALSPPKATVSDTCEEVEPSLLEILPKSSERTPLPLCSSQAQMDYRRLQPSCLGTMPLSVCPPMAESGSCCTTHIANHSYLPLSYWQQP
# B1: GCSF: Granulocyte Colony Stimulating Factor, cognate cytokine of GCSFRd715 (protein)
# chain: TPLGPASSLPQSFLLKCLEQVRKIQGDGAALQEKLCATYKLCHPEELVLLGHSLGIPWAPLSSCPSQALQLAGCLSQLHSGLFLYQGLLQALEGISPELGPTLDTLQLDVADFATTIWQQMEELGMAPALQPTQGAMPAFASAFQRRAGGVLVASHLQSFLEVSYRVLRHLAQP
# How the values were obtained:
# [1] = target: GCF receptor with a deletion at aa 715 (GCSFRd715) (UniProt Q99062); experiment: cell-based or functional assay
# Chain of GCF receptor with a deletion at aa 715 (GCSFRd715) (Q99062 25-715 limits assumed, stated change not applied): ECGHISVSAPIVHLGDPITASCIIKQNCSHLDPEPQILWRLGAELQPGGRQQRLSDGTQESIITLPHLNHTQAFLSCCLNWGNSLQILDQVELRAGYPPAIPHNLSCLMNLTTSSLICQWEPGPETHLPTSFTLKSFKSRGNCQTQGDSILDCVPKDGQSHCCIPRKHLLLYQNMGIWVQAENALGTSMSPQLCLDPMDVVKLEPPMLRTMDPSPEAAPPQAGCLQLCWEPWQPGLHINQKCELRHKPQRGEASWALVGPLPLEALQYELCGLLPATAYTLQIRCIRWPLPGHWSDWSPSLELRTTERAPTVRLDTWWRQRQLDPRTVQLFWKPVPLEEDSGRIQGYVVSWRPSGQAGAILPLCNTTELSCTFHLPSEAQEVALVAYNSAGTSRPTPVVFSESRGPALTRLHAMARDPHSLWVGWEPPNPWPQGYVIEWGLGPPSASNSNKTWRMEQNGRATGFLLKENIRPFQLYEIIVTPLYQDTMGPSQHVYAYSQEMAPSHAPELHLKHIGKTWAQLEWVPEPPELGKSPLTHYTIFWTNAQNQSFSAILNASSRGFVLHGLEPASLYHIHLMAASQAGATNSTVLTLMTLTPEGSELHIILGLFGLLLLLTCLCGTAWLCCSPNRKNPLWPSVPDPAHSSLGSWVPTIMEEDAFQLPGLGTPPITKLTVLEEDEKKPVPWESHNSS
# [2] = system: T cells expressing TPOR; experiment: Stimulation of T cells expressing TPOR for 7 days, flow cytometry; format: cell-based, human; settings: 0.1 μg/ml; for TPOR fraction after addition: enriched from 12.9%, FIG. 4 bottom panel
# Experimental: (§1) FIG. 3: T cells transduced to express (i) the thrombopoietin receptor (TPOR) or (ii) the GCF receptor with a deletion at aa 715 (GCSFRd715) are active and can drive T cell proliferation via the non-canonical JAK2 pathway. T cells expressing GCSFRd715, TPOR, or the truncated NGFR as a control were stimulated for 7 days with IL-2/IL-7/IL-15 (all at 5 ng/ml; denoted as CK; positive control condition), 0.1 μg/ml recombinant thrombopoietin (TPO), 0.1 μg/ml TPO agonist eltrombopag (EP), or 0.1 μg/ml GCSF. Cell number (top) or percent transgenic cells (bottom) were quantified using flow cytometry at 7 days.
# (§2) FIG. 4: Exemplary flow cytometry plots showing that exposure of transgenic cytokine receptor transduced cells to the cognate cytokine (i.e. GCSFRd715 to GCSF; TPOR to TPO or EP) leads to enrichment of CAR expressing cells at 7 days. Addition of GCSF enriched the GCSRFd715 transgenic cell fraction from 15.6% to 64.9% (top panel). Addition of TPO enriched the TPOR fraction from 12.9% to 82% and addition of EP enriched the TPOR fraction from 12.9% to 55.9% (bottom panel).
# (§3) Healthy donor T cells were transduced to express (i) the thrombopoietin receptor (TPOR) or (ii) the GCF receptor with a deletion at aa 715 (GCSFRd715). T cells expressing GCSFRd715, TPOR, or the truncated NGFR as a control were stimulated for 7 days with IL-2/IL-7/IL-15 (all at 5 ng/ml; denoted as CK; positive control condition), 0.1 μg/ml recombinant thrombopoietin (TPO), 0.1 μg/ml TPO agonist eltrombopag (EP), or 0.1 μg/ml GCSF. Cell number (FIG. 3, top) or percent transgenic cells (FIG. 3, bottom) were quantified using flow cytometry at 7 days.
# [3] = target: thrombopoietin receptor (TPOR) (UniProt P40238); experiment: cell-based or functional assay
# [4] = target: T1, interleukin-6 receptor (IL-6R); settings: following CAR T-cell infusion; cited from earlier work
# [5] = system: T cells expressing the truncated NGFR; experiment: Stimulation of negative control T cells (truncated NGFR) for 7 days, flow cytometry; format: cell-based, human; settings: 0.1 μg/ml, FIG. 3 top
# Experimental: as §1, §3
# [6] = system: T cells transduced with reporter+TPO-R; experiment: Expansion of TPO-R transduced T cells in vitro; format: cell-based, human; settings: transduced using the MV pseudotyped lentivector; FIG. 2D
# Source text: FIGS. 2A-2D: Transgenic TPO-R enables controllable T cell expansion. T cells were transduced with the reporter NGFR, or with reporter+the thrombopoietin receptor (TPOR) and stimulated with eltrombopag, a specific small molecule agonist of TPOR, in vitro. FIG. 2A: Cell number is shown to increase only in the presence of the TPOR agonist. […] FIG. 2C: All cells that express the reporter (tNGFR) also express the TPO receptor.
# Recombinant erythropoietin (Epo) and G-CSF are commercially approved for the treatment for anemia of chronic kidney disease, and for chemotherapy-related neutropenia, respectively. Clinical development of a recombinant thrombopoietin (TPO) was superseded by two TPO receptor (TPO-R, also known as c-Mpl) peptidomimetic drugs that are now approved for the treatment of immune thrombocytopenic purpura (romiplostim, and eltrombopag). […] Results of the TPO-R experiments were recapitulated herein (FIGS. 2A-2D). T cells were transduced with the reporter NGFR, or with reporter+TPO-R and stimulated with eltrombopag, a specific small molecule agonist of TPOR, in vitro. […] In FIG. 2C, it is shown that there is a 1:1 expression of the reporter NGFR with the TPO receptor after 12 days of eltrombopag treatment.
# [7] = system: STAT3 and STAT5; experiment: Phosphorylation of STAT3 and STAT5 in TPOR expressing T cells, flow cytometry; format: cell-based, human; settings: 0.1 μg/ml, 24 hours
# Experimental: (§4) FIG. 5: TPOR stimulation leads to activation of STAT3 and STAT5. Healthy donor Tcells expressing TPOR or untransduced control T cells were stimulated for 24 hours with 5 ng/ml IL-2/IL-7/IL-15 (CK), 0.1 μg/ml TPO or 0.1 μg/ml Eltrombopag (EP). Following stimulation cells were fixed and the phosphorylation of STAT3 and STAT5 quantified using flow cytometry.
# as §4, with “TPOR” for “FIG. 5: TPOR”, “stimulation led” for “stimulation leads”, “and STAT5 (FIG. 5).” for “and STAT5.”, “donor T cells” for “donor Tcells”, “μg/ml TPO,” for “μg/ml TPO”
# [8] = target: T2, TPO-R; settings: CART cells transduced with TPO-R; cited from earlier work
# [9] = system: Human T cells; experiment: T cell expansion after MV pseudotyped lentiviral transduction with mbIL15; format: cell-based
# Source text: FIGS. 1A-1E: Transgenic IL15 and IL15Ra-IL15 expression to enhances T cell proliferation. Human T cells were transduced with a measles virus (MV) pseudotyped lentiviral vector redirected specifically against human CD4, encoding the NGFR reporter alone (“no IL15 construct”), soluble IL15 along with the reporter, or membrane-bound IL15 along with the reporter. Transduction is shown in FIG. 1B, where the transgene is detected using a co-expressed reporter molecule (tNGFR). Quantification of soluble IL15 is depicted in FIG. 1C. No additional cytokine or stimulation signals were provided to the cells. Tcells express transgenic IL15 and IL15Ra-IL15. […].
# IL15 is a homeostatic cytokine that is required for the maintenance of CD8+ memory Tcells and NK cells, and promotes anti-tumor activity. IL15 signals through the IL15 receptor which is composed of a specific alpha chain (IL15Rα or IL15Ra) along with the shared IL2Rb and common gamma chain. Previous work has shown that a membrane bound version of IL15 (mbIL15) can be created by fusing IL15 directly to IL15Rα via a flexible linker that promotes IL15 signaling to the expressing cell (PMID: 27849617, US 2016/0158285 A1) (SEQ ID NO: 1,see Table 1). Herein, it was shown that incorporating mbIL15 in the lentiviral transfer genome increases CAR-T cell numbers 10-fold in vitro (FIGS. 1A-1D). […]
# [10] = system: T cells expressing GCSFRd715; experiment: Stimulation of T cells expressing GCSFRd715 for 7 days, flow cytometry; format: cell-based, human
# Experimental: as §1, §2, §3
molecule,measurement,setting,value
Granulocyte Colony Stimulating Factor (G-CSF) (from UniProt P09919 31-204) (ligand),transgenic cell fraction after 7 days (flow cytometry),[1],64.9%
"CC1=NN(c2ccc(C)c(C)c2)C(=O)/C1=N\Nc1cccc(-c2cccc(C(=O)O)c2)c1O [EP, eltrombopag, reference compound]",TPOR fraction after addition,[2],55.9%
recombinant thrombopoietin (TPO) (from UniProt P40225 22-353) (ligand),transgenic cell fraction after 7 days (flow cytometry),[3],82%
tocilizumab: humanized monoclonal antibody against the interleukin-6 receptor (IL-6R),reversal of CRS,[4],near-immediate reversal of CRS
thrombopoietin [TPO],TPOR fraction after addition,[2],82%
same,response to stimulation (cell number),"[2]; TPOR cells, FIG. 3 top",responded
same,response to stimulation (cell number),[5],did not respond
same,expansion of non-activated (resting) cells,[6],led to expansion; also recorded: expand selectively
same,phosphorylation of STAT3 and STAT5,[7],leads to STAT5 and STAT3 phosphorylation; also recorded: lead to the expected STAT5 and STAT3 phosphorylation
same,proliferation and anti-tumor functions,[8],superior proliferation and anti-tumor functions
mbIL15: membrane bound version of IL15: IL15 fused directly to IL15Rα via a flexible linker (SEQ ID NO: 1),increase of CAR-T cell numbers,"[9]; in vitro, mbIL15 in the lentiviral transfer genome",10 fold
same,cell number (expansion),"[9]; no additional cytokine or stimulation signals, FIG. 1D",superior expansion
B1,GCSFRd715 transgenic cell fraction after addition,"[10]; 0.1 μg/ml, enriched from 15.6%, FIG. 4 top panel",64.9%
same,response to stimulation (cell number),"[10]; GCSFRd715 cells, 0.1 μg/ml, FIG. 3 top",responded
same,relative enrichment of transgenic cells (percent transgenic cells),"[10]; GCSFRd715 cells, FIG. 3 bottom",Relative enrichment
same,response to stimulation (cell number),[5],did not respond
